The record followed here is the supplement of paper PMC10567573.

± gives the standard deviation.

The series in a line: protein stability index of a GFP-peptide fusion (GPS, HEK-293T) (PSI 1-6); higher = more stable. To be noted: c terminus: a fixed tail appended.
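Note: 24-mer peptide tiles fused after GFP, lentivirally expressed, FACS-sorted into six equal bins by GFP/DsRed ratio, decoded by Illumina sequencing, PSI is the read-weighted mean bin number.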

As to LLMTSGVVLCEGVKWLSFHSGYDF [CNOT7], the protein stability index reads like this: (treatment: DMSO) 3.33 ± 0.37; (treatment: MLN4924 1 uM, 8 h) 2.9 ± 0.39.
As for FSHDGLHVASLADDKMVRFWRIDE [WSB1], the protein stability index is, setting by setting: (treatment: DMSO) 2.44 ± 0.48; (treatment: MLN4924 1 uM, 8 h) 2.72 ± 0.52.
In the case of DPMLDFYSDKNAKLTKESYPVVVA [TENT5D], the protein stability index is, setting by setting: (treatment: DMSO) 3.77 ± 0.26; (treatment: MLN4924 1 uM, 8 h) 3.85 ± 0.23.
On to ICDPGLTSFEPEALGNLVEGMDFH [CAMK2B], for which the protein stability index reads like this: (treatment: DMSO) 3.92 ± 0.23; (treatment: MLN4924 1 uM, 8 h) 4.07 ± 0.13.
Sequence LKNKCCPPPCKFGEGKLSKRLKHK [C22orf31] yielded a protein stability index (treatment: DMSO) of 3.49 ± 0.21 and a protein stability index (treatment: MLN4924 1 uM, 8 h) of 3.74 ± 0.48.
On to SKNLIYRDVKPENFLIGRQGNKKE [CSNK1G1], for which the protein stability index (treatment: DMSO) is 4.26 ± 0.22 and the protein stability index (treatment: MLN4924 1 uM, 8 h) worked out at 4.28 ± 0.18.
The like results for VITYILLSGASPFLGETKQETLTN [DAPK3] were, in that order, 2.75 ± 0.26 and 2.86 ± 0.4.
The like results for DIDLSLYIPRDVDETGITVASLER [ZC3H15] were, in that order, 3.19 ± 0.28 and 3.5 ± 0.23.
In the case of TSTPEDKESGQEGVDSMAEEGTSD [SMARCE1], the protein stability index by setting is: (treatment: DMSO) 5.65 ± 0.25; (treatment: MLN4924 1 uM, 8 h) 5.51 ± 0.33.
The like results for DIHITARIESDLTLESLSDEEIHP [DRICH1] were, in that order, 4.85 ± 0.2 and 4.91 ± 0.19.
For YTFGSNQHGQLGTNTRRGSRAPCK [NEK8] the same measures were 4.27 ± 0.52 and 4.22 ± 0.39.
In the case of TFASLIGPFGGFFASGFKRAFKIK [CDS1], the protein stability index was 2.66 ± 0.73 (treatment: DMSO) and 1.85 ± 0.26 (treatment: MLN4924 1 uM, 8 h).
Take RQSVENDIHGLRKVIDDTNITRLQ [KRT18]: the protein stability index is, setting by setting: (treatment: DMSO) 4.17 ± 0.22; (treatment: MLN4924 1 uM, 8 h) 4.13 ± 0.25.
For the sequence IADLFVADQRSRMLSIFYFAIPVG [SPNS1], the protein stability index is 3.08 ± 0.65 (treatment: DMSO) and 2.94 ± 0.41 (treatment: MLN4924 1 uM, 8 h).
With GGPAQNAPHQQPPAPPSDALLDLH [TFE3], the protein stability index came to 5.06 ± 0.29 (treatment: DMSO) and 5.29 ± 0.2 (treatment: MLN4924 1 uM, 8 h).
For the sequence GKTKKDYQEASNLEQFVTRFLLKE [NECAB1], the protein stability index by setting is: (treatment: DMSO) 2.97 ± 0.3; (treatment: MLN4924 1 uM, 8 h) 3.36 ± 0.37.
For the sequence RDRLLNRYRQAGSSGPGNSQNSFL [RPAIN], the protein stability index runs as follows: (treatment: DMSO) 3.36 ± 0.32; (treatment: MLN4924 1 uM, 8 h) 3.56 ± 0.38.
GPGTPTGPSLPSKRESPGVGGGSG [ZBTB22] registered a protein stability index (treatment: DMSO) of 5.14 ± 0.31 and a protein stability index (treatment: MLN4924 1 uM, 8 h) of 4.96 ± 0.27.
Regarding IAPVLKLASHHNHFSQIVIFMLCT [OR10K2], the protein stability index (treatment: DMSO) came to 3.25 ± 0.75 and the protein stability index (treatment: MLN4924 1 uM, 8 h) is 3.2 ± 0.83.
For RKQKQELCEKFDYLYGILEERKNE [TRIM55] the same measures were 3.72 ± 0.36 and 3.67 ± 0.54.
In turn, CDQYSCALTGPVVDIVTGHARLSD [DHCR7] displayed a protein stability index (treatment: DMSO) of 3.57 ± 0.25 and a protein stability index (treatment: MLN4924 1 uM, 8 h) of 3.71 ± 0.17.
For RLQCPFEQELLRRQQRLNQLEKPP [FAM107A] the same measures were 3.93 ± 0.33 and 4.14 ± 0.18.
For the sequence IDKNTQLTLQVYREQADSCREQLD [TRIM14], the protein stability index stood at 4.58 ± 0.21 (treatment: DMSO) and 4.18 ± 0.79 (treatment: MLN4924 1 uM, 8 h).
RAAAAAAVAAATAAVEGSGGSGGG [KCNA4] gave a protein stability index (treatment: DMSO) of 4.88 ± 0.26 and a protein stability index (treatment: MLN4924 1 uM, 8 h) of 4.9 ± 0.28.
Take REHKETCEMDWSDKMEAYNIDETC [TEKT4]: the protein stability index reads like this: (treatment: DMSO) 5.26 ± 0.19; (treatment: MLN4924 1 uM, 8 h) 5.14 ± 0.077.
As to KDIVQTVRSRLEEAGIKVHDVRLN [TENT5C], the protein stability index by setting is: (treatment: DMSO) 2.44 ± 0.35; (treatment: MLN4924 1 uM, 8 h) 2.78 ± 0.28.
Regarding PAPERTMAGLSKEPNTLRAPRVRT [VENTX], the protein stability index runs as follows: (treatment: DMSO) 4.86 ± 0.29; (treatment: MLN4924 1 uM, 8 h) 4.85 ± 0.32.
Turning to APWNYHYHCPGSPDHQVPYGHDYP [TRAF3IP2], the protein stability index is, setting by setting: (treatment: DMSO) 2.6 ± 0.46; (treatment: MLN4924 1 uM, 8 h) 3.23 ± 0.3.
As for YQILTLEKDQEQVVMNLDSRLLIF [GMCL1], the protein stability index amounted to 2.77 ± 0.67 (treatment: DMSO) and 2.66 ± 0.7 (treatment: MLN4924 1 uM, 8 h).
As to RRLYEKKIFEYETQRRRLSPPSSS [EMD], the protein stability index by setting is: (treatment: DMSO) 3.25 ± 0.26; (treatment: MLN4924 1 uM, 8 h) 3.35 ± 0.48.
As for ASALRTRMTGGRPPLPPPDDPATL [DYRK1B], the protein stability index was 4.65 ± 0.13 (treatment: DMSO) and 4.87 ± 0.23 (treatment: MLN4924 1 uM, 8 h).
On to LLDKLAKENQDIRLLQAQLQAQKE [PBXIP1], for which the protein stability index runs as follows: (treatment: DMSO) 4.37 ± 0.33; (treatment: MLN4924 1 uM, 8 h) 4.21 ± 0.27.
Regarding QRFHEICSNLVKTRRRAVGWWKRL [ARL6IP1], the protein stability index amounted to 2.22 ± 0.41 (treatment: DMSO) and 2.55 ± 0.62 (treatment: MLN4924 1 uM, 8 h).
As to DSDVPEQRDSKCKVKWTHEEDEQL [MYBL2], the protein stability index reads like this: (treatment: DMSO) 5.44 ± 0.32; (treatment: MLN4924 1 uM, 8 h) 4.94 ± 0.76.
For the sequence DFQPREEAMLYHNQTAELRELLEF [P3H4], the protein stability index came out at 3.96 ± 0.28 (treatment: DMSO) and 4.01 ± 0.16 (treatment: MLN4924 1 uM, 8 h).
The like results for VRPGTPPDFILKVVIDKHPVRFFV [CTDNEP1] were, in that order, 2.95 ± 0.49 and 2.92 ± 0.42.
